Common to all, as to experiment: SPR
For assay [1], the target named is native hC3d (containing 9th cysteine)-Fc (human, UniProt P01024 1001-1303).
Assay [2] addresses hC3d(s)-Fc (Cys to Ser variant of hC3d-Fc) (human, UniProt P01024 1001-1303).
The next assay concerns the target hC3dg (aa 955-1303)-Fc (human, UniProt P01024 955-1303).

Chain of hC3dg (aa 955-1303)-Fc (P01024 955-1303): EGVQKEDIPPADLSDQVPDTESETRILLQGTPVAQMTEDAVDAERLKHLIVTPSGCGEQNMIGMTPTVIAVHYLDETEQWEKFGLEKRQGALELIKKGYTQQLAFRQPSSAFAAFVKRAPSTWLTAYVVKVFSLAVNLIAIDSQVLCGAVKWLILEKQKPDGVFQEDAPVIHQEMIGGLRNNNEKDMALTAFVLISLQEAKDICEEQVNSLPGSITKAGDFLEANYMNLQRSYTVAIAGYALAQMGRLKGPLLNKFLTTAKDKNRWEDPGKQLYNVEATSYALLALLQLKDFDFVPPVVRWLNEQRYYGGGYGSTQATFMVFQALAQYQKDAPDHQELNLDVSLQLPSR
Chain of hC3d(s)-Fc (Cys to Ser variant of hC3d-Fc) (P01024 other isoform, or with tags, fused parts or gaps mutant): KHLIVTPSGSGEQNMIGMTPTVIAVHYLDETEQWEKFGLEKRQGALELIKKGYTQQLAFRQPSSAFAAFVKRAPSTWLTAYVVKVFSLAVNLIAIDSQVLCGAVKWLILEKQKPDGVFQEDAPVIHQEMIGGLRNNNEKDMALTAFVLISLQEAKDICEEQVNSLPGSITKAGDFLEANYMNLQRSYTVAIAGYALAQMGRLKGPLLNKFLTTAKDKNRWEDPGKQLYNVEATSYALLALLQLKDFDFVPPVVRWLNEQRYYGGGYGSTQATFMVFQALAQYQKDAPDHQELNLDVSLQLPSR
Chain of native hC3d (containing 9th cysteine)-Fc (P01024 1001-1303): as the sequence (P01024 other isoform, or with tags, fused parts or gaps mutant) above, with S10C counted along it

B1: hCR2 (SCR1-4)-Fc (Fc fusion)
chain: ISCGSPPPILNGRISYYSTPIAVGTVIRYSCSGTFRLIGEKSLLCITKDKVDGTWDKPAPKCEYFNKYSSCPEPIVPGGYKIRGSTPYRHGDSVTFACKTNFSMNGNKSVWCQANNMWGPTRLPTCVSVFPLECPALPMIHNGHHTSENVGSIAPGLSVTYSCESGYLLVGEKIINCLSSGKWSAVPPTCEEARCKSLGRFPNGKVKEPPILRVGVTANFFCDEGYRLQGPPSSRCVIAGQGVAWTKMPVCEE
Turning to B1, the values for the Kd (in assay [1]; in assay [2]; in the assay with hC3dg (aa 955-1303)-Fc) were 5.18 nM, 7.66 nM and 3.17 nM, respectively.
